B1: Protein KHNYN (Homo sapiens), O15037 (parent)
chain: MPTWGARPASPDRFAVSAEAENKVREQQPHVERIFSVGVSVLPKDCPDNPHIWLQLEGPKENASRAKEYLKGLCSPELQDEIHYPPKLHCIFLGAQGFFLDCLAWSTSAHLVPRAPGSLMISGLTEAFVMAQSRVEELAERLSWDFTPGPSSGASQCTGVLRDFSALLQSPGDAHREALLQLPLAVQEELLSLVQEASSGQGPGALASWEGRSSALLGAQCQGVRAPPSDGRESLDTGSMGPGDCRGARGDTYAVEKEGGKQGGPREMDWGWKELPGEEAWEREVALRPQSVGGGARESAPLKGKALGKEEIALGGGGFCVHREPPGAHGSCHRAAQSRGASLLQRLHNGNASPPRVPSPPPAPEPPWHCGDRGDCGDRGDVGDRGDKQQGMARGRGPQWKRGARGGNLVTGTQRFKEALQDPFTLCLANVPGQPDLRHIVIDGSNVAMVHGLQHYFSSRGIAIAVQYFWDRGHRDITVFVPQWRFSKDAKVRESHFLQKLYSLSLLSLTPSRVMDGKRISSYDDRFMVKLAEETDGIIVSNDQFRDLAEESEKWMAIIRERLLPFTFVGNLFMVPDDPLGRNGPTLDEFLKKPARTQGSSKAQHPSRGFAEHGKQQQGREEEKGSGGIRKTRETERLRRQLLEVFWGQDHKVDFILQREPYCRDINQLSEALLSLNF

Variants of: B1
Details: with nedd8_human NEDD8, Q15843
Chain of nedd8_human NEDD8, Q15843 (Q15843 whole entry): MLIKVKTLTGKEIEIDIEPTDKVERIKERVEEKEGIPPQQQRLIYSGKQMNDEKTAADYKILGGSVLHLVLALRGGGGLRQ

| Variant | effect of a mutation on the interaction |
| --- | --- |
| W647A | decreasing interaction |
| W647P | decreasing interaction |
| H651F | decreasing interaction |

Results, then the variant that gave them:

| effect of a mutation on the interaction | Variant |
| --- | --- |
| decreasing interaction | K652D |
| decreasing interaction | R664E |
| decreasing interaction | R659E |

Source: IntAct's records for PubMed 30659753
